{"source": "the DeepSol protein solubility set", "data": [{"assay": "soluble on expression in E. coli; label from the status in PepcDB or PDB records", "values": [{"sequence": "GMKFNEFLNNLSNYEPGKDIEVIAKEYGVKEVIKLASNENPFGTPPKAIECLRQNANKAHLYPDDSMIELKSTLAQKYKVQNENIIIGAGSDQVIEFAIHSKLNSKNAFLQAGVTFAMYEIYAKQCGAKCYKTQSITHNLDEFKKLYETHKDEIKLIFLCLPNNPLGECLDASEATEFIKGVNEDCLVVIDAAYNEFASFKDSKKHLEPCELIKEFDNVLYLGTFSKLYGLGGLRIGYGIANANIISAFYKLRAPFNVSNLALKAAVAAMDDDEFTEKTLENNFSQMELYKEFAKKHNIKIIDSYTNFITYFFDEKNSTDLSEKLLKKGIIIRNLKSYGLNAIRITIGTSYENEKFFTEFDKILR", "soluble on expression in E. coli": "soluble"}, {"sequence": "GMLELVGEYWEQLKITVVPVVAAAEDDDNEQHEEKAAEGEEKEEENGDEDEDEDEDEDDDDDDDEDEEEEEEVTDQLEDLREHFKNTEEGKALVHHYEECAERVKIQQQQPGYADLEHKEDCVEEFFHLQHYLDTATAPRLFDKLK", "soluble on expression in E. coli": "soluble"}, {"sequence": "GMMNTPESRLVAAGLELPEVAAALGNYEPYSIVGSQLMTSGQFPYLQGKLLYQGQLGADYTVSEGYAACRLATLNAIAQLKQACGELSRIKQIYRLEGVLNVHQSCIEHPKALDGASDLLLEIFGEAGRHSRMIWTNPVMPLNSLCLVYLFAEL", "soluble on expression in E. coli": "soluble"}, {"sequence": "GMNKKTQLLEVIAALPEELVDQALNYVQMLQNPIQITPGVCGGQARIRNTRIPVWTLVAYRQQGAPDKELLANYPGLTAEDLSAAWHYYEQNPEQIDREIAQDDLV", "soluble on expression in E. coli": "soluble"}, {"sequence": "GMNSNFSYPALGVDGISSQISPIRDVWSTNLQQEMNLIMSLIERYPVVSMDTEFPGVVARPLGVFKSSDDYHYQTLRANVDSLKIIQIGLALSDEEGNAPVEACTWQFNFTFNLQDDMYAPESIELLTKSGIDFKKHQEVGIEPADFAELLIGSGLVLQEEVTWITFHSGYDFAYLLKAMTQIPLPAEYEEFYKILCIYFPKNYDIKYIMKSVLNNSKGLQDIADDLQIHRIGPQHQAGSDALLTARIFFEIRSRYFDGSIDSRMLNQLYGLGSTGSVLWHNNSSTPQIQFRDLPGAHPSPTPSNAGIPTTLTNTSSAPNFANSTFRFPPRVV", "soluble on expression in E. coli": "soluble"}, {"sequence": "GMRGLIVDYAGVLDGTDEDQRRWRNLLAAAKKNGVGTVILSNDPGGLGAAPIRELETNGVVDKVLLSGELGVEKPEEAAFQAAADAIDLPMRDCVLVDDSILNVRGAVEAGLVGVYYQQFDRAVVEIVGLFGLEGEF", "soluble on expression in E. coli": "soluble"}, {"sequence": "GMRNPSEDHMMRTPYQIVADHYAASDRHDPAAMMADIAPAIEWTEMAGFPCAGTYRSADEIVRNVFRRLGEEWDGYTFKLDALHDAGDTVIGVGRYSGTYRRTGKSFECRVAHVWRVDAGKIVHFEQFTDTLLVAQAMQP", "soluble on expression in E. coli": "soluble"}, {"sequence": "GMSDDLTDAQTAAIPEGFSQLNWSRGFGRQIGPLFEHREGPGQARLAFRVEEHHTNGLGNCHGGMLMSFADMAWGRIISLQKSYSWVTVRLMCDFLSGAKLGDWVEGEGELISEEDMLFTVRGRIWAGERTLITGTGVFKALSARKPRPGELAYKEEA", "soluble on expression in E. coli": "soluble"}, {"sequence": "GMSDLQSLQPKLLWQWFDQICAIPHPSYKEEQLAQFIINWAKTKGFFAERDEVGNVLIRKPATVGMENRKPVVLQAHLDMVPQANEGTNHNFDQDPILPYIDGDWVKAKGTTLGADNGIGMASALAVLESNDIAHPELEVLLTMTEERGMEGAIGLRPNWLRSEILINTDTEENGEIYIGCAGGENADLELPIEYQVNNFEHCYQVVLKGLRGGHSGVDIHTGRANAIKVLLRFLAELQQNQPHFDFTLANIRGGSIRNAIPRESVATLVFNGDITVLQSAVQKFADVIKAELALTEPNLIFTLEKVEKPQQVFSSQCTKNIIHCLNVLPNGVVRNSDVIENVVETSLSIGVLKTEDNFVRSTMLVRSLIESGKSYVASLLKSLASLAQGNINLSGDYPGWEPQSHSDILDLTKTIYAQVLGTDPEIKVIHAGLECGLLKKIYPTIDMVSIGPTIRNAHSPDEKVHIPAVETYWKVLTGILAHIPSR", "soluble on expression in E. coli": "soluble"}, {"sequence": "GMSRTLVLFDIDGTLLKVESMNRRVLADALIEVYGTEGSTGSHDFSGKMDGAIIYEVLSNVGLERAEIADKFDKAKETYIALFRERARREDITLLEGVRELLDALSSRSDVLLGLLTGNFEASGRHKLKLPGIDHYFPFGAFADDALDRNELPHIALERARRMTGANYSPSQIVIIGDTEHDIRCARELDARSIAVATGNFTMEELARHKPGTLFKNFAETDEVLASILTPKHS", "soluble on expression in E. coli": "soluble"}, {"sequence": "GMTDGEAVSAAAGPGAEGPPGPVGHWAPGSHILWRYRENGGPHVHIARPVTVVRDDADLLAVWLAPGTECVKPVLADGTPVHLEPLATRYTKPRTVQRDQWFGTGVLKLARPGEAWSVWLFWDPGWRFKNWYVNLERPLTRWEGGVDSEDHFLDISVHPDRTWHWRDEDEFAQALRDGLMDPASAGRVRRAGRSAVAEIRAWGSPFADGWEHWRPDPAWPVPSLPGDWDRTPAHVSS", "soluble on expression in E. coli": "soluble"}, {"sequence": "GMTTPPARTAKQRIQDTLNRLELDVDAWVSTAGADGGAPYLVPLSYLWDGETFLVATPAASPTGRNLSETGRVRLGIGPTRDLVLVEGTALPLEPAGLPDGVGDTFAEKTGFDPRRLTTSYLYFRISPRRVQAWREANELSGRELMRDGEWLVTD", "soluble on expression in E. coli": "soluble"}, {"sequence": "GNGRFLTLKPLPDSIIQESLEIQQGVNPFFIGRSEDCNCKIEDNRLSRVHCFIFKKRHAVGKSMYESPAQGLDDIWYCHTGTNVSYLNNNRMIQGTKFLLQDGDEIKIIWDKNNKFVIGFKVEINDTTGLFNEGLGMLQEQRVVLKQTAEEKDLVKKL", "soluble on expression in E. coli": "soluble"}, {"sequence": "GNKIPTTMAFRTVTDVDNAVNGLYDLMSGSGYYGAAMFAYGDMKGDDMQSSEESGVCNTCYMFNHRPNSLNAGSLWGRPFYILREAWNILNAIAEGKIESGDEKKLNALKGETMAVIALCQFDLTRCFGYPYTKDKGASLGAPLIDHLVGTYENPPRSTVAQAYDFIIETLEEAVTLMSEEKNNGRMNKYAARALLARIYLYHDDNRKAFDLADQLIKDADTSGSYALYPHEKYVAAWSVEAKFGSESFFEIANSVDDTPGRDSWGYLLNWYGYQKGFVTQKYAEQMLADPGDVRGHLLEENKYAGKTVWWLYKLRGTDLKTAPLECNNVVLRLSEVYLIAAEAGCKLGGDAAVQGLGYLNEIVKRGNPDNEVTMADYTLDRVLDERSKELVGEGHRFFDLLRNGKTIVRKGGYHLPSVDEEVDWDFYKCVLPIPEDQFIFSPEMEQNPGYPKN", "soluble on expression in E. coli": "soluble"}, {"sequence": "GNNMYKLSENNHKSLLENLKRRGIIDDDDVYNTMLQVDRGKYIKEIPYIDTPVYISHGVTISAPHMHALSLKRLINVLKPGSRAIDVGSGSGYLTVCMAIKMNVLENKNSYVIGLERVKDLVNFSLENIKRDKPELLKIDNFKIIHKNIYQVNEEEKKELGLFDAIHVGASASELPEILVDLLAENGKLIIPIEEDYTQVLYEITKKNGKIIKDRLFDVCFVSLKKN", "soluble on expression in E. coli": "soluble"}, {"sequence": "GNWAEITDEISKIYQDNQYKIRQINDVDAVSDKRREALQALFEHTGRNVIVYYSAWLENGRRFSGQSTDFSVNDTDKNSFMTALHKLDQSKGLDLILHTPGGDVAATESLVDYIHALFGQDFRVIVPQLAMSAGTMIALSSKEIVMGKHSSLGPIDPQFNGLPAHGLLEEFEQAKKEVSENPQTAHIWQVILNKYNPTMLGEAKKAIQWSNSMVKQWLEKGMFLDEPDKEEKATRAIKELADHSVTLAHNRHISVSKALELGLNIKELESDPKLQDLVLTLHHLSVIAAQRGPLIKFVVNHDNRGTF", "soluble on expression in E. coli": "not soluble"}, {"sequence": "GPELYHYQECVRGTTVLLKEPCPSGTYEGNSPFHPLADNKFALTCTSTHFAFACADGTRHTYQLRARSVSPKLFIRQEEVQQELYSR", "soluble on expression in E. coli": "soluble"}]}]}
